Results on three molecules are retold here after US20250304918A1 (Regeneron, published 2025).

In assay [1] the target is T1, human CACNG1 (Calcium Voltage-Gaged Auxiliary Subunit Gamma 1) (human, UniProt Q06432 1-222).
T1 construct: In the transduction experiments it was expressed on 293 cells, human myotubes or muscle of humanized mice; also called hCACNG1; human CACNG1 protein
In words: no binding assay described; descriptor in figure legend.

For assay [2], the target named is T2, mouse CACNG1 (mouse, UniProt O70578 1-223).
T2 construct: In the functional entries it is the endogenous protein on muscle of D2-mdx mice or on C2C12 myotubes
T2 sequence: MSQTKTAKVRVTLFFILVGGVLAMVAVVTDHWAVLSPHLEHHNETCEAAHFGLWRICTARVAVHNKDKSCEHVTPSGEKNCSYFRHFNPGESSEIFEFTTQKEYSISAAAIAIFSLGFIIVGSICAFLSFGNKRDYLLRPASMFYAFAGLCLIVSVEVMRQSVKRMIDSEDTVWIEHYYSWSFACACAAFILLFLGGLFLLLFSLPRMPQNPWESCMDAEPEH
The assay is described as above.

In assay [3] the target is T2, mouse CACNG1. In words: no binding assay described; definition of the label.

T1 sequence (Q06432 whole entry): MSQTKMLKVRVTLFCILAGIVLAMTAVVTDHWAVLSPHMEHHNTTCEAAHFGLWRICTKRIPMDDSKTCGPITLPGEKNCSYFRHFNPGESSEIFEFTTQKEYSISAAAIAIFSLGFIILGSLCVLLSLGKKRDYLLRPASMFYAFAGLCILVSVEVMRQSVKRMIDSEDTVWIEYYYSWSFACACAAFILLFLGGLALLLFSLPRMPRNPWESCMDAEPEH

B1: CACNG1 mAb #3 (antibody, V domains shown)
VH: QVQLVESGGGVVQPGRSLRLSCAASGFTFSTYGMHWVRQAPGKGLEWVAVIWHDGSDKYYVDSVKGRFSIARDNSKNTLYLQMNSLRVEDTGIYYCARRGIRGTVFDHWGLGTLVTVSS
VL: DIQMTQSPSTLSASVGDRVTLTCRASQSISNKLAWYQQKPGKAPNLLIYKASNLESGVPSRFSGSGSGTEFTLTISSLQPDDFATYYCQQYNSYSWTFGQGTKVEIK
notes: On AAV particles the heavy chain was fused at its C-terminus to SpyCatcher; also called Antibody Designation 3; 14572/10717
Take B1: the binding result in assay [1] and in assay [2] was “binds” in each case.

B2: CACNG1 mAb #5 (antibody, V domains shown)
VH: QVQLVESGGGVVQPGTSLRLSCAASGFTFSSYGMHWVRQAPGKGLEWVAVIWIDGSNKYYADSVKGRFTISRDNSKNTLYLQMNSLRAEDTAVYYCARRGGIVVAAPFDYWGQGTLVTVSS
VL: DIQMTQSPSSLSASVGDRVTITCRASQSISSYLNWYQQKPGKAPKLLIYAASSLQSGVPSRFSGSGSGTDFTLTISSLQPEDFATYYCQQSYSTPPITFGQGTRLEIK
notes: also called Antibody Designation 5; 14574/10783
For the molecule B2, the binding result in assay [3] is given as “no binding”.

B3: CACNG1 mAb #1 (antibody, V domains shown)
VH: QVQLVESGGGVVQPGRSLRLSCTASGITFRNYGMHWVRQAPGKGLEWVAVMWYDGSNKYYADSVKGRFTISGDNSKVYLQMNSLRAEDTAVYYCARRGTIRTAAPFDYWGQGTLVTVSS
VL: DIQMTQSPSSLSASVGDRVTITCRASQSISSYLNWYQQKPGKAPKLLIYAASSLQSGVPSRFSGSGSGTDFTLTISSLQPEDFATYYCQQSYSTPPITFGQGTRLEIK
notes: On AAV particles the heavy chain was in a hIgG4US backbone, fused at its C-terminus to SpyCatcher and joined to SpyTag on the capsid; a Fab form was also used; also called anti-hCACNG1 mAb #1; anti-CACNG1 mAb #1
On to B3, for which, in assay [3], the binding result is listed as “no binding”.
